T1: 15.5K (His-15.5K) (human, UniProt P55769 1-128)
T1 sequence: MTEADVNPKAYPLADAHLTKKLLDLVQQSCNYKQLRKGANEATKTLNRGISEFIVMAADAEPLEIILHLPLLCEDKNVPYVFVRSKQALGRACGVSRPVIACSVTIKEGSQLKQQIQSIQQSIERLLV

B1: zebrafish U8-4 snoRNA, mature (structured_RNA)
RNA: GUAUCAGUGAGGUUUAUCCUUACCUGUUGUCUUAGAAAUAAGACUGCAGUAUAUGAUGAUUGGAUUCUAUGAAUAUGUGACUAUGUUUGUACUGUAUUUGUACAUGACUUGCAACCUCUUUAUAAAUCCUAUCUGAU
B2: zebrafish U8-1 snoRNA, mature (structured_RNA)
RNA: GCAUCAGUGAGGUUUAUCCUUACCUGUUGUCUUAGAAAUAAGACUACAGCACAUGAUGAUUGGAUUCUAUGAAUGCGUGAUUAUAUUCUGUAUUCUUAAAGGGUUUGCAACACCUUUAUGAAUCCUGUCUGAU
B3: zebrafish U8-5 snoRNA, mature (structured_RNA)
RNA: GCAUCAGUGAGGUUUAUCCUUGCCUGUUGUCUUAGAAUUAAGACUUCAGCACAUGAUGAUUGGAUUCUAUGAAUACAUGAUUAUACUCUGUGUUCAUAUAGGGCUUGUCACCCAUUUAUGAAUCCUGUCUGAU
B4: zebrafish U8-2 snoRNA, mature (structured_RNA)
RNA: ACAUCAGUGAGGUUUGUCCUACCUGUUUUAGAAAUAAGACUUCAGCACAUGAUGAUUGGAUUCUAUGAAUAUGUGAUUAUAUUCUGUAUUCGUAUAGGGUUCACAACUCUGGAUCCUAUGUGAU

target: T1, 15.5K (His-15.5K); test: EMSA

Binding result, binds:
B1
B2
B3
B4
